B1: Azoarcus group I ribozyme (parent)
chain: GUGCCUUGCGCCGGGAAACCACGCAAGGGAUGGUGUCAAAUUCGGCGAAACCUAAGCGCCCGCCCGGGCGUAUGGCAACGCCGAGCCAAGCUUCGGCGCCUGCGCCGAUGAAGGUGUAGAGACUAGACGGCACCCACCUAAGGCAAACGCUAUGGUGAAGGCAUAGUCCAGGGAGUGGCGAAAGUCACACAAACCGG

Variants of: B1
Assay: reverse-splicing fitness (ratio to wild type); higher = more active; in vitro selection; Mg2+ level not given
How it was run: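 An in vitro group I ribozyme library with randomized positions was T7-transcribed and gel-purified. In triplicate, 10 pmol RNA in EPPS pH 7.5 was reacted with 50 pmoles of a 30-nt RNA substrate for 1 h at 37 °C across several added MgCl2 levels (1–48 mM), then stopped with EDTA. Products were reverse transcribed from a substrate-complementary primer, PCR-amplified and sequenced (HiSeq 4000). Fitness is a variant's read proportion after selection over that before, normalised to wild type.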

Variant	reverse-splicing fitness
C82A A111C A145U C150U U176A	0.0486
C82A A111C A145U C150U U176G	0.0141
C82A A111C A145U C150U U176C	0.0623
C82A A111C A145G C150U C169U U176C	0.0143
C82A A111C A145G C150U C169U U176G	0.00766
C82A A111C A145G C150U C169U U176A	0.0138
C82A A111C A120U C150A C169A U176A	0.00546
C82A A111C A120U C150A C169A U176G	0.00277
C82A A111C A120U C150A C169A U176C	0.00418
C82A A111C A145G C169G U176G	0.00836
C82A A111C A145G C169G U176A	0.0221
C82A A111C A145G C169G U176C	0.0335
C82A A111C A145U C150G C169U U176C	0.0113
C82A A111C A145U C150G C169U U176A	0.00845
C82A A111C A145U C150G C169U U176G	0.00827
C82A A111C A145C C169U U176C	0.0138
C82A A111C A145C C169U U176A	0.0142
C82A A111C A145C C169U U176G	0.00646
C82A A111C A145G C169U	0.0142
C82A A111C A145G C169G	0.00878
C82A A111C A145G C169A	0.0103
C82A A111C A145U C150U C169G U176A	0.0143
C82A A111C A145U C150U C169G U176G	0.00855
C82A A111C A145U C150U C169G U176C	0.0179

Variant	reverse-splicing fitness
C82A A111C A145U U176A	0.073
C82A A111C A145U U176C	0.0939
C82A A111C A145U U176G	0.0235
C82A A111C A145C C150G C169G U176G	0.00714
C82A A111C A145C C150G C169G U176A	0.00778
C82A A111C A145C C150G C169G U176C	0.00759
C82A A111C C150G C169U U176A	0.0073
C82A A111C C150G C169U U176C	0.0137
C82A A111C C150G C169U U176G	0.00629
C82A A111C A145C C150U C169A	0.00801
C82A A111C A145C C150U C169U	0.0121
C82A A111C A145C C150U C169G	0.0076
C82A A111C A120U C150G U176A	0.00392
C82A A111C A120U C150G U176G	0.00249
C82A A111C A120U C150G U176C	0.00623
C82A A111C A120U C150G C169U	0.00639
C82A A111C A120U C150G C169A	0.00857
C82A A111C A120U C150G C169G	0.0061
C82A A111C A145U C150G C169G U176G	0.00861
C82A A111C A145U C150G C169G U176A	0.00679
C82A A111C A145U C150G C169G U176C	0.0061
C82A A111C C150A C169G	0.00835
C82A A111C C150A C169U	0.0131
C82A A111C C150A C169A	0.00979

Variant	reverse-splicing fitness
C82A A111C A120U A145U C150G U176C	0.00511
C82A A111C A120U A145U C150G U176A	0.00392
C82A A111C A120U A145U C150G U176G	0.00259
C82A A111C A120U A145U C150U C169A U176G	0.00295
C82A A111C A120U A145U C150U C169A U176A	0.00334
C82A A111C A120U A145U C150U C169A U176C	0.00305
C82A A111C A120U C150U C169G	0.00537
C82A A111C A120U C150U C169A	0.0052
C82A A111C A120U C150U C169U	0.00638
C82A A111C C150A U176A	0.0165
C82A A111C C150A U176C	0.0285
C82A A111C C150A U176G	0.0104
C82A A111C A120U A145U C150U C169U U176G	0.00288
C82A A111C A120U A145U C150U C169U U176C	0.00348
C82A A111C A120U A145U C150U C169U U176A	0.00402
C82A A111C A120U C150G C169U U176G	0.00331
C82A A111C A120U C150G C169U U176C	0.00486
C82A A111C A120U C150G C169U U176A	0.00407
C82A A111C A120U C150A C169U	0.00635
C82A A111C A120U C150A C169A	0.00599
C82A A111C A120U C150A C169G	0.00503
C82A A111C A145C C150G U176A	0.00906
C82A A111C A145C C150G U176G	0.00408
C82A A111C A145C C150G U176C	0.016

Variant	reverse-splicing fitness
C82A A111C A145U C150G U176A	0.00919
C82A A111C A145U C150G U176G	0.00428
C82A A111C A145U C150G U176C	0.0161
C82A A111C A145G C150G C169U U176C	0.0116
C82A A111C A145G C150G C169U U176G	0.00666
C82A A111C A145G C150G C169U U176A	0.0112
C82A A111C A145G C150G U176C	0.0173
C82A A111C A145G C150G U176G	0.00607
C82A A111C A145G C150G U176A	0.00936
C82A A111C C150G C169A U176G	0.00698
C82A A111C C150G C169A U176C	0.0102
C82A A111C C150G C169A U176A	0.00958
C82A A111C A145G C150U C169G U176A	0.0115
C82A A111C A145G C150U C169G U176G	0.00687
C82A A111C A145G C150U C169G U176C	0.0162
C82A A111C A120U A145U C169A	0.00297
C82A A111C A120U A145U C169G	0.00439
C82A A111C A120U A145U C169U	0.00402
C82A A111C A145C C150U C169A U176G	0.0095
C82A A111C A145C C150U C169A U176A	0.0127
C82A A111C A145C C150U C169A U176C	0.01
C82A A111C A145C C150A C169A U176G	0.0103
C82A A111C A145C C150A C169A U176A	0.015
C82A A111C A145C C150A C169A U176C	0.0113

Variant	reverse-splicing fitness
C82A A111C A145G C150A C169A U176A	0.0172
C82A A111C A145G C150A C169A U176C	0.0191
C82A A111C A145G C150A C169A U176G	0.0091
C82A A111C A145U C150G C169A	0.0091
C82A A111C A145U C150G C169U	0.00887
C82A A111C A145U C150G C169G	0.00748
C82A A111C A145G C150U C169G	0.00915
C82A A111C A145G C150U C169U	0.0119
C82A A111C A145G C150U C169A	0.0103
C82A A111C A145U C150A C169U	0.0123
C82A A111C A145U C150A C169A	0.00982
C82A A111C A145U C150A C169G	0.00915
C82A A111C A120U A145U C169A U176C	0.00315
C82A A111C A120U A145U C169A U176G	0.00264
C82A A111C A120U A145U C169A U176A	0.00312
C82A A111C A120U C150A C169U U176C	0.00458
C82A A111C A120U C150A C169U U176A	0.00806
C82A A111C A120U C150A C169U U176G	0.00284
C82A A111C A120U C169G U176G	0.00234
C82A A111C A120U C169G U176A	0.00421
C82A A111C A120U C169G U176C	0.00315
C82A A111C A145C C150A C169U U176G	0.00856
C82A A111C A145C C150A C169U U176C	0.0109
C82A A111C A145C C150A C169U U176A	0.0138

Variant	reverse-splicing fitness
C82A A111C A145U C150U C169U	0.0128
C82A A111C A145U C150U C169A	0.00867
C82A A111C A145U C150U C169G	0.00899
C82A A111C A120U A145U C150G C169U	0.00325
C82A A111C A120U C169U	0.00555
C82A A111C A120U C169G	0.00388
C82A A111C A120U C169A	0.0037
C82A A111C C150A C169A U176A	0.0188
C82A A111C C150A C169A U176G	0.00857
C82A A111C C150A C169A U176C	0.0237
C82A A111C A120U A145U C150G C169U U176C	0.00305
C82A A111C A120U A145U C150G C169U U176A	0.0031
C82A A111C A120U A145U C150G C169U U176G	0.0029
C82A A111C A120U C150A U176G	0.00369
C82A A111C A120U C150A U176C	0.00738
C82A A111C A120U C150A U176A	0.00497
C82A A111C C150U C169G	0.00783
C82A A111C C150U C169A	0.0115
C82A A111C A120U A145U C150U U176A	0.00713
C82A A111C A120U A145U C150U U176G	0.00353
C82A A111C A120U A145U C150U U176C	0.00936
C82A A111C A145G C150U	0.174
C82A A111C A145G C150A	0.0316
C82A A111C A145G C150G	0.0238

Variant	reverse-splicing fitness
C82A A111C A145C C150U C169G U176C	0.0195
C82A A111C A145C C150U C169G U176G	0.00845
C82A A111C A145C C150U C169G U176A	0.0253
C82A A111C A120U A145U U176A	0.00697
C82A A111C A120U A145U U176G	0.00339
C82A A111C A120U A145U U176C	0.0103
C82A A111C A120U C169U U176A	0.00613
C82A A111C A120U C169U U176C	0.00626
C82A A111C A120U C169U U176G	0.00199
C82A A111C A145C C150A	0.0144
C82A A111C A145C C150U	0.0486
C82A A111C A145C C150G	0.0226
C82A A111C A120U C150G C169G U176A	0.00439
C82A A111C A120U C150G C169G U176G	0.00279
C82A A111C A120U C150G C169G U176C	0.00343
C82A A111C A145G C150G C169G	0.00662
C82A A111C A145G C150G C169U	0.00803
C82A A111C A145G C150G C169A	0.00852
C82A A111C A145G C150A U176A	0.0153
C82A A111C A145G C150A U176G	0.00922
C82A A111C A145G C150A U176C	0.0335
C82A A111C A145U	0.229
C82A A111C A145G	0.258

From the RNAGym collection of RNA variant scans (doi:10.1093/molbev/msab373)
